# Measurements taken from article PMC7772775, “The uncharacterized protein FAM47E interacts with PRMT5 and regulates its functions” (Life Science Alliance, 2020).
# B1: recombinant GST-tagged FAM47E (natural protein, human, UniProt Q6ZV65-2 1-295, looked up)
# chain: MQMSVPCVLSSLQNHEPNKPLFTTQSQLLSKVLEVLDPDRKLEDTWAYCQDTRKGMKEPTKLLKKHSTQVYLGPSKKTSVSNAGQWLYEEKPHKMDLLHENGPRPGLHENVCKAVSDFCKWVTTFGISDIDEEFILKQFDIDYETKPSHDALHTMKLNQVPLELKRSVGLSKLQETEFFQKLGYERKLQKPQNPYKPKWVKMRYGAWYLNPKLWKKQRVDEPLVDPEVSHKAQEENFKKELQEQEELLADLHGTVAFKDFILSRGYRTPRFLENMYIGKECKRACNKTPIKRTQA
# notes: Cloned in pGEX-6P2; also called GST-FAM47E; pGEX-FAM47E; source: bacterial expression, purified
# Target: T1, recombinant His-tagged PRMT5 (human, UniProt O14744-1 1-637)
# T1 construct: Protein arginine methyltransferase 5 (PRMT5), full length, NM_006109.4; Cloned in pET28a; also called His-PRMT5; His-RMT5; source: bacterial expression, purified
# Assay: pull-down; 50 ug GST or GST-FAM47E on glutathione sepharose 4B, blocked with 5% BSA; 25 ug His-PRMT5 in 10 mM Tris, 150 mM NaCl, 0.5 mM EDTA, 0.1% NP40, 3 h at 4°C; washed with 300 mM NaCl, 0.5% NP40; probed with His antibody
# Conditions: both partners purified
# T1 sequence (O14744 whole entry): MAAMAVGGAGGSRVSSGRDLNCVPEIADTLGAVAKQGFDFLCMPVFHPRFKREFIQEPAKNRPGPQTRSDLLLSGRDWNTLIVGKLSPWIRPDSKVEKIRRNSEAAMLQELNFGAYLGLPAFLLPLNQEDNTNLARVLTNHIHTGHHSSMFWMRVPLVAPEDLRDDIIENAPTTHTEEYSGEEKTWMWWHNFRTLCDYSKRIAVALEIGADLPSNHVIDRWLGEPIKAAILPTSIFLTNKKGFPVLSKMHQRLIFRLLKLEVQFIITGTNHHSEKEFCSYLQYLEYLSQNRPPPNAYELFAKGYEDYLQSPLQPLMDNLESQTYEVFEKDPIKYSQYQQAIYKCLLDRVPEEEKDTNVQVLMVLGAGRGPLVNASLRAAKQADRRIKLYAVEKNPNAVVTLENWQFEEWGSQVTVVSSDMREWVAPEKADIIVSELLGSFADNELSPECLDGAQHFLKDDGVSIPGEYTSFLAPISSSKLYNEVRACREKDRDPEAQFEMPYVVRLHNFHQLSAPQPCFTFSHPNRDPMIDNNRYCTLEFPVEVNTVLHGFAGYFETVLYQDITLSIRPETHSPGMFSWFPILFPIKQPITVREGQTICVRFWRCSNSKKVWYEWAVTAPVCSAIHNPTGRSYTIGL
binder,measurement,value
B1,binding result,binds
